Seven molecules from PMC10975490 (Toxins, 2024) can be followed below.

The target of data set [1] is Gloydius brevicauda basic phospholipase A2 (Gloydius brevicauda). Briefly: inhibition of enzyme activity; PLA2 activity measured fluorometrically with 10-Pyrene-PC as substrate at various concentrations of LRG; apparent inhibition constant (Ki app) by non-linear least-squares analysis of relative PLA2 activity.
Data set [2] addresses Protobothrops flavoviridis leucine-rich α2-glycoprotein (LRG) (Protobothrops flavoviridis). Briefly: SPR; BIAcore X; P. flavoviridis LRG amine-coupled to a CM5 chip; Cyt c or PLA2 as analyte; 25 °C; 50 mM HEPES, 0.05% Tween 20, pH 7.5, NaCl to ionic strength 0.2; 10 μL/min; 1:1 Langmuir model with drifting baseline, global fit; apparent Kd. For orientation: Surface plasmon resonance follows binding to a sensor surface in real time, without labels.

Data set [3] deals with Laticauda semifasciata leucine-rich α2-glycoprotein (LRG) (Laticauda semifasciata). Description: SDS-PAGE under reducing and non-reducing conditions.
For data set [4], the target named is Naja kaouthia leucine-rich α2-glycoprotein (LRG) (Naja kaouthia). The data set is described as above.
Data set [5] has as its target Protobothrops flavoviridis leucine-rich α2-glycoprotein (LRG) (Protobothrops flavoviridis). Described as above.
Data set [6] deals with the molecule itself. Described as above.
In data set [7] the target is T1, Protobothrops flavoviridis basic phospholipase A2 PL-X (Protobothrops flavoviridis, UniProt P06860 1-122).
T1 construct: Group II basic phospholipase A2 PL-X from the venom of Protobothrops flavoviridis; also called P. flavoviridis PL-X
T1 sequence: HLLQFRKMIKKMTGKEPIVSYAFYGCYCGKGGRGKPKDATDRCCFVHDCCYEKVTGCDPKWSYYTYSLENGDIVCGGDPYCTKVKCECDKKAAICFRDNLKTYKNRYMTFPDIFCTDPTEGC
Description: inhibition of enzyme activity; PLA2 activity measured fluorometrically with 10-Pyrene-PC as substrate at various concentrations of LRG; apparent inhibition constant (Ki app) by non-linear least-squares analysis of relative PLA2 activity. The note with it: both partners purified.

Chain of Gloydius brevicauda basic phospholipase A2 (Gloydius brevicauda) (O42187 17-138 limits assumed): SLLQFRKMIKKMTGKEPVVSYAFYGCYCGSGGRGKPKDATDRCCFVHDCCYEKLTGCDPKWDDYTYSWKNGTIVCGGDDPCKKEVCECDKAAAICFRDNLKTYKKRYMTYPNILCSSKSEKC

In the case of “Elaphe climacophora leucine-rich α2-glycoprotein (PLIβ) (from UniProt C0STK7 24-332) (natural protein)”, in data set [1], the Ki was 11.1 nM.

In the case of “Laticauda semifasciata cytochrome c (natural protein)”, the Kd in data set [2] worked out at 0.0149 nM.

“Laticauda semifasciata leucine-rich α2-glycoprotein (LRG) (natural protein)” came in with a stoichiometry N in data set [3] of 2. For the same molecule, the Ki in data set [1] was 1030 nM.

In data set [4], “Naja kaouthia leucine-rich α2-glycoprotein (LRG) (natural protein)” showed a stoichiometry N of 2. Moreover, in data set [1], the Ki was 350 nM.

Molecule “Protobothrops flavoviridis leucine-rich α2-glycoprotein (LRG) (natural protein)” displayed a stoichiometry N in data set [5] of 2.

B1: Gloydius brevicauda leucine-rich α2-glycoprotein (PLIβ) (natural protein, UniProt O93233 24-331, looked up)
chain: VLYCPPTPAPENVTEFVCNSPSLHEFPTGFPARAKMISVEFTQVSSLGVEALQGLPNLQELHLSNNRLKTLPSGLFRNLPQLHTLDLSTNHLEDLPPEIFTNASSLILLPLSENQLAELHPSWFQTLGELRILGLDHNQVKEIPISCFDKLKKLTSLDLSFNLLRRLAPEMFSGLDNLEKLILESNPIQCIVGRTFHWHPKLTVLSLKNSSLTNIMGFFQPLEQLELLDLSDNELTTMEPPVYKTSANLSLDLSGNPWACDCRLDNLLTWVNEHNIHLYSKEEIVCASPKHFKGECATSLHKSQICPC
notes: PLIβ (snake LRG) of Gloydius brevicauda (Agkistrodon blomhoffii siniticus), from serum; also called G. brevicauda LRG; G. brevicauda PLIβ
In the case of B1, in data set [6], the “stoichiometry N” value was 2. Also, the Ki in data set [7] came out at 26.1 nM.

B2: Elaphe quadrivirgata PLIβ (natural protein)
chain: VLYCPPDPAPENITEFVCNSPSLHEFPTGFPVRTKLISVEFTQVSSLGVEALQGLPNLQELHLSNNRLKTLLSGLFRNLPELHTLDLSTNLLEDLPPEIFTSTTSLTLLSISENRLAKLRLSWFETLKELRILSLDNNQLKEVPISCFDKLEKLTFLDLSSNRLHRLSPDMFSGLDNLERLSLENNPIRCIAPKSFHGRPKLSIISLKNCSLTNIITGVFQPLNHLVLLDLSDNELTMLDPPVAIPSANLSLDLTGNPWACNCRMDNLLTWVKEHKIDLYSKEEIVCAFPKSFKGEEATSLHRSQICPC
B2: the “stoichiometry N” value in data set [6] amounted to 2.

As a reminder, the stoichiometry N is a count of units in the complex or per binding partner.
